Values of other authors as cited in patent US9168216B2, “Carrier comprising one or more di and/or mono-(electron transfer agent) phosphate derivatives or complexes thereof” (priority 2005, dated 2015).

Settings: subcutaneous, 25 μg/kg body weight

Substance: PTH: human parathyroid hormone (fragment 1-34)
- Time of peak PTH level in rat plasma after injection: 40 to 60 min
- Time to complete turnover of PTH in plasma: ≤ 4 h
